Assay results from patent CN117886935A (BEIJING KENUO XINCHENG TECH CO LTD, dated 2024).

What was measured:
[1] = target: CSF-1R on CSF-1R/SRE-Luc/HEK293 reporter cells (UniProt P07333 20-972, limits assumed); assay: cell-based or functional assay
CSF-1R-mFc [2] = target: T1, CSF-1R-mFc (human, UniProt P07333 20-512, limits assumed); assay: competition ELISA: human IL-34 coated, CSF-1R-mFc 0.15 μg/ml premixed with antibody
T1 construct: not shown: mouse Fc (mFc)

[3] = target: T2, CSF-1R on rhCSF-1R-CHO cells (human, UniProt P07333 20-972); assay: flow cytometry on rhCSF-1R-CHO cells, FITC goat anti-human
T2 construct: whole, on cells; also called 细胞表面CSF-1R; CSF-1R-CHO细胞
T2 sequence (P07333 20-972): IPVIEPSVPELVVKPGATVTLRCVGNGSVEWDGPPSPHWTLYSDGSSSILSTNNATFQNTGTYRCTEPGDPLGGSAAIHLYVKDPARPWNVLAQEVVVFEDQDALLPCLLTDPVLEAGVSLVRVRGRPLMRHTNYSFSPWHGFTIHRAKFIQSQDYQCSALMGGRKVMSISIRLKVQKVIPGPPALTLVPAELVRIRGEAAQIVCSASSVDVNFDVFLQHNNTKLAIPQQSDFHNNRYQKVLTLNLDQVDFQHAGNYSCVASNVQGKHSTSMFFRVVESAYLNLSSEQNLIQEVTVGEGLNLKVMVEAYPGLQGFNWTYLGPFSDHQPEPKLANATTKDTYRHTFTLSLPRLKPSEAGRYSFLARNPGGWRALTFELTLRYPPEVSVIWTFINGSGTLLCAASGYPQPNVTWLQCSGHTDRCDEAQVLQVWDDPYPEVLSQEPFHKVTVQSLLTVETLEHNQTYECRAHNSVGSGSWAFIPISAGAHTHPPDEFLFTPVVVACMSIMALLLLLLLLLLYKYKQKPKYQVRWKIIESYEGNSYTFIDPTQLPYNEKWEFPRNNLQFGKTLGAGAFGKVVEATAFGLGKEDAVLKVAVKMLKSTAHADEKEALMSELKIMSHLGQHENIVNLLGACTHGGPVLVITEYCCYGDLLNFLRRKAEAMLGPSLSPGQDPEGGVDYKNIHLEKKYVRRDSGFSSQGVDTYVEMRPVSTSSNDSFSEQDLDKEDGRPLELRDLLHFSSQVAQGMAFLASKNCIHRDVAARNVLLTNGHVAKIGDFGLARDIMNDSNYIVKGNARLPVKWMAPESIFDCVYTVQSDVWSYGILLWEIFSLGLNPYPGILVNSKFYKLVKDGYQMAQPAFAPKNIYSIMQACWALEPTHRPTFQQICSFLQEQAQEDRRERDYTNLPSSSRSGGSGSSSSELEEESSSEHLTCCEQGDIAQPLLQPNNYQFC

CSF-1R-mFc [4] = target: T1, CSF-1R-mFc; assay: competition ELISA: CSF1-His coated, CSF-1R-mFc 0.15 μg/ml premixed with antibody
[5] = target: T3, 人CSF-1R-his重组蛋白 (human CSF-1R-his recombinant protein) (human, UniProt P07333 20-512, limits assumed); assay: BLI (ForteBio)
T3 construct: Analyte of the ForteBio assay, 60 nM; also called CD115; M-CSF-R; not shown: His tag
T3 sequence (P07333 20-512 limits assumed): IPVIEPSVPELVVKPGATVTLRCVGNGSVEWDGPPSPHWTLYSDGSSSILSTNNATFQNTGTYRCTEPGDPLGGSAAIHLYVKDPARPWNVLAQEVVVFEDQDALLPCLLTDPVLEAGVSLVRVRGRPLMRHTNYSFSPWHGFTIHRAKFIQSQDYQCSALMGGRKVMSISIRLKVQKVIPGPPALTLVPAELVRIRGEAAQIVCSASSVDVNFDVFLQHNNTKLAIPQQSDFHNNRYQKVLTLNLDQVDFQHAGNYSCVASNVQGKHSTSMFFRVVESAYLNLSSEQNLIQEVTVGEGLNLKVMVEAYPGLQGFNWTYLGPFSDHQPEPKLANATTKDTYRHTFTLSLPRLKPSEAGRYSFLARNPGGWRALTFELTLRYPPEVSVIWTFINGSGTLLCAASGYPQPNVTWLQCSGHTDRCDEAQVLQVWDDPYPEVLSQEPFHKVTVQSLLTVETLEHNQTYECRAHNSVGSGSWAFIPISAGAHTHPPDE

[6] = target: T3, 人CSF-1R-his重组蛋白 (human CSF-1R-his …); assay: BLI (ForteBio), antibody on AHC probe, CSF-1R-his 60 nM, 1:1 fit

T1 sequence (P07333 20-512 limits assumed): as above
Sequence of CSF-1R on CSF-1R/SRE-Luc/HEK293 reporter cells (P07333 20-972 limits assumed): as the sequence (P07333 20-972) above

Binder	Kd [5] [nM]	koff [5] [s⁻¹]	kon [5] [M⁻¹ s⁻¹]	also measured
hz73 (antibody, V domains shown, also called 人源化抗体hz73) VH: EVQLVQSGAEVKKPGASVKVSCKASGYTFTDYNMDWVRQAPGQGLEWMGDIIPNYDSATYNQKFKGRVTMTRDTSTSTVYMELSSLRSEDTAVYYCARKGGGYVNWYFDVWGQGTTVTVSS VL: DIQMTQSPSSLSASVGDRVTITCHASQNINVWLSWYQQKPGKAPKLLIYKASNLHTGVPSRFSGSGSGTDFTFTISSLQPEDIATYYCQQGESYPYTFGGGTKVEIK	0.0605	1.3e-05	215000	IC50, inhibition of CSF-1-stimulated (7.2 ng/ml) SRE-Luc reporter in CSF-1R/SRE-Luc/HEK293 cells [1]: 0.31 µg/mL; IC50, inhibition of IL-34-stimulated (85.06 ng/ml) SRE-Luc reporter in CSF-1R/SRE-Luc/HEK293 cells [1]: 0.8 µg/mL; IC50 (CSF-1R-mFc [2]): 0.393 nM; EC50 [3]: 0.196 µg/mL; IC50 (CSF-1R-mFc [4]): 0.339 nM
Hm5L (antibody, V domains shown) VH: EVQLVQSGAEVKKPGASVKVSCKASGYTFTDYNMDWVRQAPGQGLEWMGDIIPNYESATYNQKFKGRVTMTRDTSTSTVYMELSSLRSEDTAVYYCARKGGGYVNWYFDVWGQGTTVTVSS VL: DIQMTQSPSSLSASVGDRVTITCHASQNINVWLSWYQQKPGKAPKLLIYKASNLHTGVPSRFSGSGSGTDFTFTISSLQPEDIATYYCQQGESYPYTFGGGTKVEIK	0.0794	2.55e-05	321000	
Lm7H (antibody, V domains shown) VH: EVQLVQSGAEVKKPGASVKVSCKASGYTFTDYNMDWVRQAPGQGLEWMGDIIPNYDSATYNQKFKGRVTMTRDTSTSTVYMELSSLRSEDTAVYYCARKGGGYVNWYFDVWGQGTTVTVSS VL: DIQMTQSPSSLSASVGDRVTITCRASQNINVWLSWYQQKPGKAPKLLIYDASNLETGVPSRFSGSGSGTDFTFTISSLQPEDIATYYCQQGESYPYTFGGGTKVEIK	0.0634	1.3e-05	205000	EC50 [3]: 0.201 µg/mL
Lm1H (antibody, V domains shown) VH: EVQLVQSGAEVKKPGASVKVSCKASGYTFTDYNMDWVRQAPGQGLEWMGDIIPNYDSATYNQKFKGRVTMTRDTSTSTVYMELSSLRSEDTAVYYCARKGGGYVNWYFDVWGQGTTVTVSS VL: DIQMTQSPSSLSASVGDRVTITCRASQNINVWLSWYQQKPGKAPKLLIYKASNLHTGVPSRFSGSGSGTDFTFTISSLQPEDIATYYCQQGESYPYTFGGGTKVEIK	0.0683	1.4e-05	205000	
Hm1L (antibody, V domains shown) VH: EVQLVQSGAEVKKPGASVKVSCKASGYTFTEYNMDWVRQAPGQGLEWMGDIIPNYDSATYNQKFKGRVTMTRDTSTSTVYMELSSLRSEDTAVYYCARKGGGYVNWYFDVWGQGTTVTVSS VL: DIQMTQSPSSLSASVGDRVTITCHASQNINVWLSWYQQKPGKAPKLLIYKASNLHTGVPSRFSGSGSGTDFTFTISSLQPEDIATYYCQQGESYPYTFGGGTKVEIK	0.0853	2.2e-05	258000	
Hm4L (antibody, V domains shown) VH: EVQLVQSGAEVKKPGASVKVSCKASGYTFTDYNMDWVRQAPGQGLEWMGGIIPNYDSATYNQKFKGRVTMTRDTSTSTVYMELSSLRSEDTAVYYCARKGGGYVNWYFDVWGQGTTVTVSS VL: DIQMTQSPSSLSASVGDRVTITCHASQNINVWLSWYQQKPGKAPKLLIYKASNLHTGVPSRFSGSGSGTDFTFTISSLQPEDIATYYCQQGESYPYTFGGGTKVEIK	0.125	1.4e-05	112000	
Hm2L (antibody, V domains shown) VH: EVQLVQSGAEVKKPGASVKVSCKASGYTFTSYNMDWVRQAPGQGLEWMGDIIPNYDSATYNQKFKGRVTMTRDTSTSTVYMELSSLRSEDTAVYYCARKGGGYVNWYFDVWGQGTTVTVSS VL: DIQMTQSPSSLSASVGDRVTITCHASQNINVWLSWYQQKPGKAPKLLIYKASNLHTGVPSRFSGSGSGTDFTFTISSLQPEDIATYYCQQGESYPYTFGGGTKVEIK	0.0963	2.9e-05	301000	
Lm4H (antibody, V domains shown) VH: EVQLVQSGAEVKKPGASVKVSCKASGYTFTDYNMDWVRQAPGQGLEWMGDIIPNYDSATYNQKFKGRVTMTRDTSTSTVYMELSSLRSEDTAVYYCARKGGGYVNWYFDVWGQGTTVTVSS VL: DIQMTQSPSSLSASVGDRVTITCHASQNINVYLNWYQQKPGKAPKLLIYKASNLHTGVPSRFSGSGSGTDFTFTISSLQPEDIATYYCQQGESYPYTFGGGTKVEIK	0.189	1.93e-05	102000	
Hm6L (antibody, V domains shown) VH: EVQLVQSGAEVKKPGASVKVSCKASGYTFTDYNMDWVRQAPGQGLEWMGDIIPNYDSATYAQKFKGRVTMTRDTSTSTVYMELSSLRSEDTAVYYCARKGGGYVNWYFDVWGQGTTVTVSS VL: DIQMTQSPSSLSASVGDRVTITCHASQNINVWLSWYQQKPGKAPKLLIYKASNLHTGVPSRFSGSGSGTDFTFTISSLQPEDIATYYCQQGESYPYTFGGGTKVEIK	0.0785	1.53e-05	195000	EC50 [3]: 0.199 µg/mL
Lm3H (antibody, V domains shown) VH: EVQLVQSGAEVKKPGASVKVSCKASGYTFTDYNMDWVRQAPGQGLEWMGDIIPNYDSATYNQKFKGRVTMTRDTSTSTVYMELSSLRSEDTAVYYCARKGGGYVNWYFDVWGQGTTVTVSS VL: DIQMTQSPSSLSASVGDRVTITCHASQNINVWLNWYQQKPGKAPKLLIYKASNLHTGVPSRFSGSGSGTDFTFTISSLQPEDIATYYCQQGESYPYTFGGGTKVEIK	0.0935	1.45e-05	155000	EC50 [3]: 0.253 µg/mL
Hm3L (antibody, V domains shown) VH: EVQLVQSGAEVKKPGASVKVSCKASGYTFTDYNMHWVRQAPGQGLEWMGDIIPNYDSATYNQKFKGRVTMTRDTSTSTVYMELSSLRSEDTAVYYCARKGGGYVNWYFDVWGQGTTVTVSS VL: DIQMTQSPSSLSASVGDRVTITCHASQNINVWLSWYQQKPGKAPKLLIYKASNLHTGVPSRFSGSGSGTDFTFTISSLQPEDIATYYCQQGESYPYTFGGGTKVEIK	0.082	2.1e-05	256000	
Lm7Hm7 (antibody, V domains shown) VH: EVQLVQSGAEVKKPGASVKVSCKASGYTFTSYNMHWVRQAPGQGLEWMGDIIPNYESATYAQKFKGRVTMTRDTSTSTVYMELSSLRSEDTAVYYCARKGGGYVNWYFDVWGQGTTVTVSS VL: DIQMTQSPSSLSASVGDRVTITCRASQNINVWLSWYQQKPGKAPKLLIYDASNLETGVPSRFSGSGSGTDFTFTISSLQPEDIATYYCQQGESYPYTFGGGTKVEIK	0.107	1.23e-05	115000	

More lines, main results first:

Kd [5] [nM]	koff [5] [s⁻¹]	kon [5] [M⁻¹ s⁻¹]	Binder	also measured
0.105	2.1e-05	200000	Lm5H (antibody, V domains shown) VH: EVQLVQSGAEVKKPGASVKVSCKASGYTFTDYNMDWVRQAPGQGLEWMGDIIPNYDSATYNQKFKGRVTMTRDTSTSTVYMELSSLRSEDTAVYYCARKGGGYVNWYFDVWGQGTTVTVSS VL: DIQMTQSPSSLSASVGDRVTITCHASQNINVWLSWYQQKPGKAPKLLIYDASNLHTGVPSRFSGSGSGTDFTFTISSLQPEDIATYYCQQGESYPYTFGGGTKVEIK	
0.138	2.02e-05	146000	Lm4Hm7 (antibody, V domains shown) VH: EVQLVQSGAEVKKPGASVKVSCKASGYTFTSYNMHWVRQAPGQGLEWMGDIIPNYESATYAQKFKGRVTMTRDTSTSTVYMELSSLRSEDTAVYYCARKGGGYVNWYFDVWGQGTTVTVSS VL: DIQMTQSPSSLSASVGDRVTITCHASQNINVYLNWYQQKPGKAPKLLIYKASNLHTGVPSRFSGSGSGTDFTFTISSLQPEDIATYYCQQGESYPYTFGGGTKVEIK	
0.109	1.14e-05	105000	Lm2H (antibody, V domains shown) VH: EVQLVQSGAEVKKPGASVKVSCKASGYTFTDYNMDWVRQAPGQGLEWMGDIIPNYDSATYNQKFKGRVTMTRDTSTSTVYMELSSLRSEDTAVYYCARKGGGYVNWYFDVWGQGTTVTVSS VL: DIQMTQSPSSLSASVGDRVTITCHASQNINVYLSWYQQKPGKAPKLLIYKASNLHTGVPSRFSGSGSGTDFTFTISSLQPEDIATYYCQQGESYPYTFGGGTKVEIK	
0.188	1.9e-05	101000	Lm6H (antibody, V domains shown) VH: EVQLVQSGAEVKKPGASVKVSCKASGYTFTDYNMDWVRQAPGQGLEWMGDIIPNYDSATYNQKFKGRVTMTRDTSTSTVYMELSSLRSEDTAVYYCARKGGGYVNWYFDVWGQGTTVTVSS VL: DIQMTQSPSSLSASVGDRVTITCHASQNINVWLSWYQQKPGKAPKLLIYKASNLETGVPSRFSGSGSGTDFTFTISSLQPEDIATYYCQQGESYPYTFGGGTKVEIK	
0.03	6.54e-06	218000	ch73 (antibody, human IgG1, kappa, V domains shown, also called 嵌合抗体ch73; 73号) VH: EVQLQQFGAELVKPGASVKISCKASGYTFTDYNMDWMKQSHGKSLEWIGDIIPNYDSATYNQKFKGKATLTVDRSSSTAYMELRSLSSEDTAVYYCARKGGGYVNWYFDVWGAGTTVTVSS VL: DIQMNQSPSSLSASLGDTITITCHASQNINVWLSWYQQKPGNIPKLLIYKASNLHTGVPSRFSGSGSGTGFTLTISSLQPEDIATYYCQQGESYPYTFGGGTKLEIKR	IC50 (CSF-1R-mFc [2]): ~0.71 nM; Kd [6]: 0.03 nM; koff [6]: 6.54e-06 s⁻¹; kon [6]: 218000 M⁻¹ s⁻¹; IC50 (CSF-1R-mFc [4]): 0.323 nM
